We go through one substance from publication PMC10870172.

Holding throughout (assay): other fluorescence titration; single-molecule FRET on freely diffusing ClpB hexamers (1:100 labeled:unlabeled, ~50 pM labeled, ~5 nM total) with increasing concentrations of unlabeled κ-casein; ratio of H2MM-derived state 1 population with and without κ-casein fitted to a simple binding isotherm; 25 mM HEPES, 25 mM KCl, 10 mM MgCl2, 2 mM ATP, 0.01% Tween 20, pH 8, 22°C
Test [1] concerns the target ClpB PL3 construct S359C-Y646C (wt), hexamer with one labeled protomer (Thermus thermophilus) (UniProt Q9RA63).
In test [2] the target is ClpB PL2 BB construct A281C-S359C with E271A/E668A, hexamer with one labeled protomer (Thermus thermophilus) (UniProt Q9RA63).
Test [3] deals with ClpB PL2 construct A281C-S359C (wt), hexamer with one labeled protomer (Thermus thermophilus) (UniProt Q9RA63).
For test [4], the target named is ClpB PL1 construct S236C-S359C (wt), hexamer with one labeled protomer (Thermus thermophilus) (UniProt Q9RA63).

For “κ-casein (from UniProt P02668 22-190) (natural protein)”, the Kd worked out at 900 nM in test [1], 300 nM in test [2], 11300 nM in test [3] and 2900 nM in test [4].
